What was measured:
[1] = target: T1, recombinant polyhistidine tagged mouse FcγRIII (R&D Systems) (mouse, UniProt P08508 31-215); test: ELISA, His-tagged mouse receptor captured on copper-coated plate
T1 construct: Bought
T1 sequence (looked up): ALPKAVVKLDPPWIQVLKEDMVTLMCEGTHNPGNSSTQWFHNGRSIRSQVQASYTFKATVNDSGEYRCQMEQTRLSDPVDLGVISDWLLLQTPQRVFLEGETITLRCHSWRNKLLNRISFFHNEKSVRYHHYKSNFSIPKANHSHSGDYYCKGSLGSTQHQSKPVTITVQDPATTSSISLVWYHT
Method: (§1) Commercially-available recombinant polyhistidine tagged mouse FcγRI, FcγRII, FcγRIII, and FcγRIV (R&D Systems) were diluted to 1 μg/ml in PBS and 100 μl/well was captured onto copper-coated plates (Pierce) overnight at 4° C. Plates were washed three times with wash buffer (0.15M NaCl, 0.02% Tween 20). Non-specific binding was blocked using 200 μl/well SuperBlock (Pierce) for 15 minutes at room temperature. Plates were washed three times as above. […] Plates were washed three times as above to remove unbound mAb. CNTO 860 variants that bound to plated receptors were detected using 100 μl/well HRP-labeled goat F(ab′)₂ anti-human IgG F(ab′)₂ (Jackson ImmunoResearch) diluted 1:5,000 in PBS incubated at room temperature for 1 hour. Plates were washed five times using wash buffer as above, and developed using 100 μl/well TMB Stable Stop substrate (Fitzgerald Industries) stopped with 0.5M HCl. Absorbance was detected at 450 nm.
(§2) All binding assays were in an ELISA format, with recombinant soluble receptor captured on coated EIA plates.

[2] = target: T2, recombinant polyhistidine tagged mouse FcγRII (R&D Systems) (mouse, UniProt P08101 40-217, limits assumed); test: as above
T2 construct: Bought; also called FcRII
T2 sequence (looked up): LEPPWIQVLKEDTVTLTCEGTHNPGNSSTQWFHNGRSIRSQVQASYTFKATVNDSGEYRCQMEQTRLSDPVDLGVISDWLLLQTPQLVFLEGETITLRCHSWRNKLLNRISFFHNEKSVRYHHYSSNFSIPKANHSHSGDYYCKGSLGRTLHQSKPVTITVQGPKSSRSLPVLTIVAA
Method: as §1, §2

[3] = target: T3, recombinant polyhistidine tagged mouse FcγRIV (R&D Systems) (mouse, UniProt A0A0B4J1G0 21-203); test: as above
T3 construct: Bought
T3 sequence: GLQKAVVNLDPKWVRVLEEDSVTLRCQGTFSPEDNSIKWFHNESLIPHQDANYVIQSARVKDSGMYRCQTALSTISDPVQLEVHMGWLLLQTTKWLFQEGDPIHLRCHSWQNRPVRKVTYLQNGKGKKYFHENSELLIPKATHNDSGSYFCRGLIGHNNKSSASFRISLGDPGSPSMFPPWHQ
Method: as §1, §2

[4] = target: T4, recombinant polyhistidine tagged mouse FcγRI (R&D Systems) (mouse, UniProt P26151 25-297); test: as above
T4 construct: Bought; also called murine FcγRI
T4 sequence (looked up): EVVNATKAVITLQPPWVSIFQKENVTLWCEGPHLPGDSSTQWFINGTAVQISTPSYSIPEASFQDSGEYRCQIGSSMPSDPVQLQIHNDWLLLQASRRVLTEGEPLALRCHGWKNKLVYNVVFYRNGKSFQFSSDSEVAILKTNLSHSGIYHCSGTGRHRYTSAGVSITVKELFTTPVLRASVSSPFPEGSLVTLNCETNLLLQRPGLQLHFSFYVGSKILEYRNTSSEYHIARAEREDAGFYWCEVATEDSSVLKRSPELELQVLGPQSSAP
Method: as §1, §2

[5] = target: T5, FcγRIIIa on NK cells of human PBMC (human, UniProt P08637 17-254); test: cell-based or functional assay
T5 sequence (P08637 17-254): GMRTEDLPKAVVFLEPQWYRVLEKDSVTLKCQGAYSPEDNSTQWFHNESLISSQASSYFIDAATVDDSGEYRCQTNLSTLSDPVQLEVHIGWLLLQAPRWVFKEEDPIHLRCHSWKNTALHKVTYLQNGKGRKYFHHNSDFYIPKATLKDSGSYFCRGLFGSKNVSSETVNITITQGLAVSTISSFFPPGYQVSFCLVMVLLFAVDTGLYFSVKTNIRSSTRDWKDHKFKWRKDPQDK

[6] = target: T5, FcγRIIIa on NK cells of human PBMC; test: cell-based or functional assay; remark: listed apart in the source
[7] = target: T6, recombinant human His-tagged FcγRIIIa (extracellular domain made at Centocor) (human, UniProt P08637 17-208); test: ELISA
T6 construct: extracellular domain; also called CD16a; recombinant, soluble, human FcγRIIIa
T6 sequence (P08637 17-208): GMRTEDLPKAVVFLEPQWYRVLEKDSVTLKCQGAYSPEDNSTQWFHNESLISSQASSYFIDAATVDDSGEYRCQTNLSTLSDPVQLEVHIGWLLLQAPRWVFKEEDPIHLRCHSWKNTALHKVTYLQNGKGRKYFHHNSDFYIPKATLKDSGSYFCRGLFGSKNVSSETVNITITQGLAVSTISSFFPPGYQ
Method: FcγRI (CD64) ELISA —50 μl of a 1 μg/ml solution of recombinant human His-tagged FcγRI (extracellular domain, R&D Systems #1257-FC-050) in ELISA buffer (PBS, pH 7.4, 4 mg/ml BSA, 0.01% Tween-20) was added to each well of HisGrab 96 well plates (Pierce #15142) (Powers G., Notebook 9006, pp. 166-168, 180-181). The plate was incubated with shaking for 3 hours. The plates were washed 3× with 300 μl of wash buffer (PBS, 0.01% Tween-20) on a plate washer. Serial dilutions of the CNTO860 antibody Fc-variant samples were made in ELISA buffer and 50 μl per well of each titration were added in duplicate to the FcγRI-coated plates. The plates were incubated with shaking for 1 hour. The plates were washed 3× with 300 μl of wash buffer on a plate washer. 50 μl of a 1:10,000 dilution of HRP-labeled goat F(ab′)₂ anti-human IgG F(ab′)₂ (Jackson Immunoresearch # 109-036-097) in ELISA buffer was added to each well. The plates were incubated with shaking for 30 minutes. The plates were washed 3× with 300 μl of wash buffer on the plate washer. 50 μl per well TMB substrate (RDI #RDI-TMBSU-1L) was added to each well and developed for 5 minutes. The reaction was stopped by adding 100 μl 0.2 N sulfuric acid. The plates were read at OD450 on an Envision plate reader.
FcγRIIIa (CD16a) ELISA—A human FcγRIIIa binding assay was done in ELISA format similar to the assay for FcγRI above. 50 μl of a 2 μg/ml solution of recombinant human His-tagged FcγRIIIa (extracellular domain made at Centocor) in ELISA buffer (PBS, 4 mg/ml BSA, 0.01% Tween-20) was added to each well of HisGrab 96 well plates (Pierce #15142) (Powers G., Notebook 10378, 19-23). The plate was incubated for 3 hours at room temp. The plates were blocked with 200 μl of Starting Block (Pierce #15142) for 30 min, and then washed 3× with 300 μl of wash buffer (PBS, 0.01% Tween-20) on a plate washer. Serial dilutions of the CNTO 860 test samples were made in Starting Block buffer and 50 μl per well of each titration were added in duplicate to the FcγRIIIa-coated plates. The plates were incubated for 1 hour. The plates were washed 3× with 300 μl of wash buffer on a plate washer. 50 μl of a 1:10,000 dilution of HRP-labeled goat F(ab′)2 anti-human IgG F(ab′)2 (Jackson Immunoresearch # 109-036-097) in Starting Block buffer was added to each well. The plates were incubated for 30 minutes.

B1: CHO-CNTO 860 WT (antibody, human IgG1, kappa)
heavy: not shown
light: DIQMTQSPSSLSASVGDRVTITCKASQDIRKYLNWYQQKPGKAPKLLIYYATSLADGVPSRFSGSGSGTDYTFTISSLQPEDIATYYCLQHGESPYTFGQGTKLEITRTVAAPSVFIFPPSDEQLKSGTASVVCLLNNFYPREAKVQWKVDNALQSGNSQESVTEQDSKDSTYSLSSTLTLSKADYEKHKVYACEVTHQGLSSPVTKSFNRGEC
modifications: N-linked glycan at heavy chain Asn297 (CHO-type, highly fucosylated); not carried by the letters
notes: Anti-human tissue factor human IgG1/kappa; transiently expressed in CHO cells (plasmids p4145/p4146; CHO Abs typically 95% fucosylated), purified by protein A; also called CNTO 860 WT from CHO cells; WT (CHO cell-derived); copies: 2 + 2
ECOD1 (concentration required for an O.D. value of 1.0) [1]: 4000 ng/mL | ECOD1 (concentration required for an O.D. value of 1.0) [2]: 4000 ng/mL | ECOD1 (concentration required for an O.D. value of 1.0) [3]: 60 ng/mL

B2: CHO-CNTO 860 A330I (antibody, IgG1)
heavy: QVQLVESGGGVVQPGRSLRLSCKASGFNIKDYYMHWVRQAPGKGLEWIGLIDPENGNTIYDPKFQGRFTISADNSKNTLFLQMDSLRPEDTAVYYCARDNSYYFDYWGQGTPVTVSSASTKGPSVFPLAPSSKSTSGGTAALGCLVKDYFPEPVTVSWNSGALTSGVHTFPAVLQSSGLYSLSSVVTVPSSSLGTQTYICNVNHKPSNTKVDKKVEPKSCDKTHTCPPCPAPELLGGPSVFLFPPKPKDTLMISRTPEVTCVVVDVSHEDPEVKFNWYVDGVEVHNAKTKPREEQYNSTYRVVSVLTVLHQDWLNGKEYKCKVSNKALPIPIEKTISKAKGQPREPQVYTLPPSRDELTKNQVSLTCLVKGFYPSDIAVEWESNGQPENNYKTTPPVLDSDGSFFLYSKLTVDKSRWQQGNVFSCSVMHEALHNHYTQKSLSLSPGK
light: B1 light
modifications: N-linked glycan at Asn297 of the heavy chain (CHO-type, highly fucosylated); not carried by the letters
notes: IgG1/kappa Fc variant; EU numbering; also called A330I (CHO cell-derived); copies: 2 + 2
ECOD1 (concentration required for an O.D. value of 1.0) [1]: 12000 ng/mL | ECOD1 (concentration required for an O.D. value of 1.0) [2]: 8000 ng/mL | ECOD1 (concentration required for an O.D. value of 1.0) [3]: 130 ng/mL | ECOD1 (concentration required for an O.D. value of 1.0) [4]: 90000 ng/mL

B3: CHO-CNTO 860 A330Y (antibody, human IgG1, kappa)
heavy: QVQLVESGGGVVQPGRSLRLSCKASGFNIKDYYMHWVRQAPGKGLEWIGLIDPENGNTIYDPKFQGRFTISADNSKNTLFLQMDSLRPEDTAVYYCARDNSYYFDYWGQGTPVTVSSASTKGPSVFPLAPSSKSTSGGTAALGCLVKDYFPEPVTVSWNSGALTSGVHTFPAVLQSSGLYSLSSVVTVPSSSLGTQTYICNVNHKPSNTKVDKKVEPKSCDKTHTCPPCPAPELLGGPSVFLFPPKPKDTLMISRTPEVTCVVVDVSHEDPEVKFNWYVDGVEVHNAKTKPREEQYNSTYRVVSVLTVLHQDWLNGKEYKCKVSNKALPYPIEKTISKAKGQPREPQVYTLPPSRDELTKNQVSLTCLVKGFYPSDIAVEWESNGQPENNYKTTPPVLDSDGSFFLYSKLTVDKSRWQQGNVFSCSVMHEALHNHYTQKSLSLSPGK
light: B1 light
modifications: N-linked glycan at Asn297 of the heavy chain (CHO-type, highly fucosylated); not carried by the letters
notes: IgG1/kappa Fc variant; transiently expressed in CHO cells (p4183/p4146); EU numbering; also called A330Y (CHO cell-derived); copies: 2 + 2
ECOD1 (concentration required for an O.D. value of 1.0) [1]: 4000 ng/mL | ECOD1 (concentration required for an O.D. value of 1.0) [2]: 2700 ng/mL | ECOD1 (concentration required for an O.D. value of 1.0) [3]: 100 ng/mL | ECOD1 (concentration required for an O.D. value of 1.0) [4]: 5000 ng/mL | EC25 (ng/ml), ADCC of HCT116 cells by human PBMC [5]: 4 ng/mL

B4: CHO-CNTO 860 I332E (antibody)
heavy: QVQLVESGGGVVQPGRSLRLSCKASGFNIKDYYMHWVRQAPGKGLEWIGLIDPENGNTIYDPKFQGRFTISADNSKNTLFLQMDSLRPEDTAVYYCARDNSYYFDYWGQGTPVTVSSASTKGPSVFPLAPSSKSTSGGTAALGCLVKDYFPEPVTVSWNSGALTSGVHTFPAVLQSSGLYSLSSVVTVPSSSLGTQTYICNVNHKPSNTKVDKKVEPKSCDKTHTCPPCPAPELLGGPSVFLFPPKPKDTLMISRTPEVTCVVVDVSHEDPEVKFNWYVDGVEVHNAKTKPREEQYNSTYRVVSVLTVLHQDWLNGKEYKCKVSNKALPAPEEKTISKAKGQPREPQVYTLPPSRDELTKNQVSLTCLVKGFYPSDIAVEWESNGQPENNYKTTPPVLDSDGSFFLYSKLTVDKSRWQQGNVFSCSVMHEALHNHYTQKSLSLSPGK
light: B1 light
modifications: N-linked glycan at Asn297 of the heavy chain (CHO-type, highly fucosylated); not carried by the letters
notes: IgG1/kappa Fc variant; transiently expressed in CHO cells (p4157/p4146); also called I332E (CHO cell-derived); I332E from CHO cells; copies: 2 + 2
fold potency in ADCC against CHO-CNTO 860 WT [6]: ~7 fold | ECOD1 (concentration required for an O.D. value of 1.0) [1]: 1600 ng/mL | ECOD1 (concentration required for an O.D. value of 1.0) [2]: 1500 ng/mL | ECOD1 (concentration required for an O.D. value of 1.0) [3]: 13 ng/mL | ECOD1 (concentration required for an O.D. value of 1.0) [4]: 4000 ng/mL | fold better binding than WT from CHO cells [7]: 6 fold | EC25 (ng/ml), ADCC of HCT116 cells by human PBMC [5]: 0.75 ng/mL

B5: CHO-CNTO 860 I332E/A330I (antibody, human IgG1, kappa)
heavy: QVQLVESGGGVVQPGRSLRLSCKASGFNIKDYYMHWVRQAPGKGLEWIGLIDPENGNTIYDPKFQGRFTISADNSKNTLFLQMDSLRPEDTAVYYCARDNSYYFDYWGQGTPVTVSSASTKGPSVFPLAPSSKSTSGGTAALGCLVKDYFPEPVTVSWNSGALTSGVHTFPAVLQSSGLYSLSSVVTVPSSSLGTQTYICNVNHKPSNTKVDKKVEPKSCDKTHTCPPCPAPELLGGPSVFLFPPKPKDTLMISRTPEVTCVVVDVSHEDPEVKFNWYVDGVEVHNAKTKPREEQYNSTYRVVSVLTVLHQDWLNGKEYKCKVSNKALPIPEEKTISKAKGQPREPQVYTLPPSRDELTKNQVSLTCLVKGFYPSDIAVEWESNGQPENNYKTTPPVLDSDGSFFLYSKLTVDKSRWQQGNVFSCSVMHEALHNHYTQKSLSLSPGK
light: B1 light
modifications: Heavy chain N297 carries the CHO-type N-linked glycan (about 95% fucosylated); not carried by the letters.
notes: IgG1/kappa Fc variant; transiently expressed in CHO cells (p4185/p4146); EU numbering; also called A330I/I332E (CHO cell-derived); A330I/I332E variant from CHO cells; copies: 2 + 2
ECOD1 (concentration required for an O.D. value of 1.0) [1]: 800 ng/mL | ECOD1 (concentration required for an O.D. value of 1.0) [2]: 600 ng/mL | ECOD1 (concentration required for an O.D. value of 1.0) [3]: 18 ng/mL | ECOD1 (concentration required for an O.D. value of 1.0) [4]: 3000 ng/mL | fold better binding than WT from CHO cells [7]: ~8 fold | EC25 (ng/ml), ADCC of HCT116 cells by human PBMC [5]: 1.2 ng/mL

B6: CHO-CNTO 860 I332E/S239D (antibody, human IgG1, kappa)
heavy: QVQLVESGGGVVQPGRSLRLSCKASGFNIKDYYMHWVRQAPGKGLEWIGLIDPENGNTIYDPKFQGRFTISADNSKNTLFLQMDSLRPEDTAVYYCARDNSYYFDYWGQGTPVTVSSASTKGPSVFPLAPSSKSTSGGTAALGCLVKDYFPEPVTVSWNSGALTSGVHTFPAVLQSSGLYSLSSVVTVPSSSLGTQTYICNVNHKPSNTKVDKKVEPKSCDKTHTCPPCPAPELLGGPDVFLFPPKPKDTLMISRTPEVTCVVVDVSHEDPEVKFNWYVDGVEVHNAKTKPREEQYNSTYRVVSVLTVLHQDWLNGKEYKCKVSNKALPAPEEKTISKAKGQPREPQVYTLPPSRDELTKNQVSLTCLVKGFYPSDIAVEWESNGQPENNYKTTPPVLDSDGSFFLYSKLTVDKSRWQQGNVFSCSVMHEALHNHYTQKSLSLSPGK
light: B1 light
modifications: Heavy chain N297 carries the CHO-type N-linked glycan (about 95% fucosylated); not carried by the letters.
notes: IgG1/kappa Fc variant; transiently expressed in CHO cells (p4186/p4146); EU numbering; also called S239D/I332E (CHO cell-derived); copies: 2 + 2
ECOD1 (concentration required for an O.D. value of 1.0) [1]: 1100 ng/mL | ECOD1 (concentration required for an O.D. value of 1.0) [2]: 900 ng/mL | ECOD1 (concentration required for an O.D. value of 1.0) [3]: 11 ng/mL | ECOD1 (concentration required for an O.D. value of 1.0) [4]: 1700 ng/mL | EC25 (ng/ml), ADCC of HCT116 cells by human PBMC [5]: 0.7 ng/mL

— US20080311034A1 (published 2008)
